Experimental data as given in patent US20160200782A1.

Tests used:
Test in all cases: cell-based or functional assay
MKK7β(h) (human) = MKK7β(h) (human) (UniProt O14733)
Pim-3(h) (human) = Pim-3(h) (human) (UniProt Q86V86)
TAO3(h) (human) = TAO3(h) (human) (UniProt Q9H2K8)
ACK1(h) (human) = ACK1(h) (human) (UniProt Q07912)
Ret(V804L)(h) (human) = Ret(V804L)(h) (human) (UniProt P07949)
Plk1(h) (human) = Plk1(h) (human) (UniProt P53350)
FGFR2(N549H)(h) (human) = FGFR2(N549H)(h) (human) (UniProt P21802)
DDR2(h) (human) = DDR2(h) (human) (UniProt Q16832)
DDR2(h) (human), sequence (Q16832 422-855 limits assumed): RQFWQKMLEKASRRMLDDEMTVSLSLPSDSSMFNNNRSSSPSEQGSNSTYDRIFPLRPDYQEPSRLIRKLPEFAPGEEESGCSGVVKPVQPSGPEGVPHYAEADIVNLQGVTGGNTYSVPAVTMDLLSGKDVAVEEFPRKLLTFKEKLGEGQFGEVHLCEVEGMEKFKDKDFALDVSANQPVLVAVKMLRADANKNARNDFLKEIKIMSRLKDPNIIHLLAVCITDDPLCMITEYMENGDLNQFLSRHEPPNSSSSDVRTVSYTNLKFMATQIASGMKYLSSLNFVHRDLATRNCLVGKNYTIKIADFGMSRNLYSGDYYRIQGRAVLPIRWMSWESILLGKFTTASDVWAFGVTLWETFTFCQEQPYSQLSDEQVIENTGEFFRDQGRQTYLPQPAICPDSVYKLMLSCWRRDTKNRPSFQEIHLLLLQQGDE

SGK3(h) (human) = SGK3(h) (human) (UniProt Q96BR1)
SGK3(h) (human), sequence (Q96BR1 whole entry): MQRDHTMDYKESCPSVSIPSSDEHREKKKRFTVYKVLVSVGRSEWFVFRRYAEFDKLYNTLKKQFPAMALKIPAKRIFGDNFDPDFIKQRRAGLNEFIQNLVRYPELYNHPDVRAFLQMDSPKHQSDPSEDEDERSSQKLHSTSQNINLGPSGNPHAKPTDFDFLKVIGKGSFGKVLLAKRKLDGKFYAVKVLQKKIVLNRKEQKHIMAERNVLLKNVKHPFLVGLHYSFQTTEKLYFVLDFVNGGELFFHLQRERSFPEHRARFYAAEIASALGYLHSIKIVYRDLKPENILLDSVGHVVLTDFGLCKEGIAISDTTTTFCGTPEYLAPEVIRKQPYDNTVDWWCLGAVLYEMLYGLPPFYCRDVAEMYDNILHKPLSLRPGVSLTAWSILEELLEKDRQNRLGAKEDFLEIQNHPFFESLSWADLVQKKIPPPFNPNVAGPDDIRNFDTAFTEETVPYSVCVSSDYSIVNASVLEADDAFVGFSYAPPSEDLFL

GRK5(h) (human) = GRK5(h) (human) (UniProt P34947)
MSK2(h) (human) = MSK2(h) (human) (UniProt O75676)
MSK2(h) (human), sequence (O75676 whole entry): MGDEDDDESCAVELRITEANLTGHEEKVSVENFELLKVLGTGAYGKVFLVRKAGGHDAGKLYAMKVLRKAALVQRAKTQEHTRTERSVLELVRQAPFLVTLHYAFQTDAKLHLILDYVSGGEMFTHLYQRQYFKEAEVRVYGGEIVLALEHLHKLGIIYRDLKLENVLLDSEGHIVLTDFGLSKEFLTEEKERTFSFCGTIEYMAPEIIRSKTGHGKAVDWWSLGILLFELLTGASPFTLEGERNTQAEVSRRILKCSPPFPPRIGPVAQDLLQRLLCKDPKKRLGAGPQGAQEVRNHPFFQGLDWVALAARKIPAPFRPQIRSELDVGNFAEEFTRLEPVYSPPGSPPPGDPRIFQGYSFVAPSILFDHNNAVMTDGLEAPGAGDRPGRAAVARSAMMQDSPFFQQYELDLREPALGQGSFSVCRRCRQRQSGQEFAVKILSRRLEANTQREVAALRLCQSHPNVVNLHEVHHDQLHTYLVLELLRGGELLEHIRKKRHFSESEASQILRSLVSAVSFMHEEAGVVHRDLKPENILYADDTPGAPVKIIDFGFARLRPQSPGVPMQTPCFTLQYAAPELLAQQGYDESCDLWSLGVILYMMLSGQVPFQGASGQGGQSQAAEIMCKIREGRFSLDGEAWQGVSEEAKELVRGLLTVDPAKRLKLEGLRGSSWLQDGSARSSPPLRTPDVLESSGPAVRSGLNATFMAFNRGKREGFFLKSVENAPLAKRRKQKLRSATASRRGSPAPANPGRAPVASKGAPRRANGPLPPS

Flt4(h) (human) = Flt4(h) (human) (UniProt P35916)
NEK11(h) (human) = NEK11(h) (human) (UniProt Q8NG66)
Yes(h) (human) = Yes(h) (human) (UniProt P07947)
PAK6(h) (human) = PAK6(h) (human) (UniProt Q9NQU5)
KDR(h) (human) = KDR(h) (human) (UniProt P35968)
CK2α2(h) (human) = CK2α2(h) (human) (UniProt P19784)
FGFR1(V561M)(h) (human) = FGFR1(V561M)(h) (human) (UniProt P11362)
FGFR1(V561M)(h) (human), sequence (P11362 456-765 V561M limits assumed): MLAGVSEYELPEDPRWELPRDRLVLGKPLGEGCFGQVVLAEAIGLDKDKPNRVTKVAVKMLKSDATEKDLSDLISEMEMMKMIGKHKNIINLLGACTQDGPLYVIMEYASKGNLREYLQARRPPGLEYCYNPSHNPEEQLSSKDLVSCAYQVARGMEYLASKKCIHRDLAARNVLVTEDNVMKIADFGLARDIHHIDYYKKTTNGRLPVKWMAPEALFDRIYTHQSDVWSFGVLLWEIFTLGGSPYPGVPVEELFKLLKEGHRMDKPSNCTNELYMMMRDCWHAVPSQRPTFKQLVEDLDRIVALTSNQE

SRPK1(h) (human) = SRPK1(h) (human) (UniProt Q96SB4)
TAK1(h) (human) = TAK1(h) (human) (UniProt O43318)
PhKγ2(h) (human) = PhKγ2(h) (human) (UniProt P15735)
PhKγ2(h) (human), sequence (P15735 whole entry): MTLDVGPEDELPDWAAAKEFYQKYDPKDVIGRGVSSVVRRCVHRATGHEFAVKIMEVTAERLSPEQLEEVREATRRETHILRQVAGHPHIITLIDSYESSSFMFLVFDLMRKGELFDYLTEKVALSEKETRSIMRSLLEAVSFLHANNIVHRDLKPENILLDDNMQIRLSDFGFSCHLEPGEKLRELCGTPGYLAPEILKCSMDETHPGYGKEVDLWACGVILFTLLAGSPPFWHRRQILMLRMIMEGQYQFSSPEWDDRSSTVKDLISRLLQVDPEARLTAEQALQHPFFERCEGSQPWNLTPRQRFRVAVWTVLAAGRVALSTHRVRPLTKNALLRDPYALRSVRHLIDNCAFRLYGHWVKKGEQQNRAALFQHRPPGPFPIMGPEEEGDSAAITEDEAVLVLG

CK1γ2(h) (human) = CK1γ2(h) (human) (UniProt P78368)
MKK6(h) (human) = MKK6(h) (human) (UniProt P52564)
MKK6(h) (human), sequence (P52564 whole entry): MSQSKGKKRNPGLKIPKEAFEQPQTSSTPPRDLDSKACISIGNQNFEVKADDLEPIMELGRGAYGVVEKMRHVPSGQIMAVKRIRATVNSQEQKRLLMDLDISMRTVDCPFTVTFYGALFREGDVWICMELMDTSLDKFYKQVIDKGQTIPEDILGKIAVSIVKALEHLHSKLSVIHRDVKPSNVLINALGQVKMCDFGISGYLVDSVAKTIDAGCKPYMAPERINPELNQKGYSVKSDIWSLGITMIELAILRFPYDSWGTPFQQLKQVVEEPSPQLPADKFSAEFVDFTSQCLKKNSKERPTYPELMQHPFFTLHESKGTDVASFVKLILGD

Tie2(R849W)(h) (human) = Tie2(R849W)(h) (human) (UniProt Q02763)
CK1γ1(h) (human) = CK1γ1(h) (human) (UniProt Q9HCP0)
JNK1α1(h) (human) = JNK1α1(h) (human) (UniProt P45983)
TrkA(h) (human) = TrkA(h) (human) (UniProt P04629)
MAPK1(h) (human) = MAPK1(h) (human) (UniProt P28482)
SGK2(h) (human) = SGK2(h) (human) (UniProt Q9HBY8)
SGK2(h) (human), sequence (Q9HBY8 whole entry): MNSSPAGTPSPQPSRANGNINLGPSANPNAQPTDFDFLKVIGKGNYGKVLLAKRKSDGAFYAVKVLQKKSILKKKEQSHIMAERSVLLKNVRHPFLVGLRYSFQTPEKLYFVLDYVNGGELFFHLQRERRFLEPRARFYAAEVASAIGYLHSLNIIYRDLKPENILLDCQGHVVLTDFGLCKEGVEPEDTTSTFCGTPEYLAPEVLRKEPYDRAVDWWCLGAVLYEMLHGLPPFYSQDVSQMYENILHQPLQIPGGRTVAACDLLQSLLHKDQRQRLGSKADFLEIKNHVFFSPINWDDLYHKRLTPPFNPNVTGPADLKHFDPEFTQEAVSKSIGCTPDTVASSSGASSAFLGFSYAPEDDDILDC

Fms(Y969C)(h) (human) = Fms(Y969C)(h) (human) (UniProt P07333)
IGF-1R(h) (human) = IGF-1R(h) (human) (UniProt P08069)
CLK2(h) (human) = CLK2(h) (human) (UniProt P49760)
MLCK(h) (human) = target: MLCK(h) (human)
CDK3/cyclinE(h) (human) = CDK3/cyclinE(h) (human) (UniProt Q00526)
HIPK1(h) (human) = HIPK1(h) (human) (UniProt Q86Z02)
HIPK1(h) (human), sequence (Q86Z02 158-555 limits assumed): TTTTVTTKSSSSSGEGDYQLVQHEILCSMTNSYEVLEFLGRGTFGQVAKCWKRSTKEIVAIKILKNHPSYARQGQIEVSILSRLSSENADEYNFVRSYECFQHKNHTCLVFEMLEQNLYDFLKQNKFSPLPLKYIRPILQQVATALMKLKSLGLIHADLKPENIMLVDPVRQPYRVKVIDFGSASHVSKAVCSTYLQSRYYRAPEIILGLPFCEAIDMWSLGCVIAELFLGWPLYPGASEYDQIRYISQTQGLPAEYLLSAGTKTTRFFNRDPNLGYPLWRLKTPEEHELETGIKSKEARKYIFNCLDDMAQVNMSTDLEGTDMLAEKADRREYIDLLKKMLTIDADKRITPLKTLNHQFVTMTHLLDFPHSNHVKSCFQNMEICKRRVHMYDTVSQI

eEF-2K(h) (human) = eEF-2K(h) (human) (UniProt O00418)
EphA2(h) (human) = EphA2(h) (human) (UniProt P29317)
cKit(D816H)(h) (human) = cKit(D816H)(h) (human) (UniProt P10721)
CK1γ3(h) (human) = CK1γ3(h) (human) (UniProt Q9Y6M4)
EphB1(h) (human) = EphB1(h) (human) (UniProt P54762)
EphB1(h) (human), sequence (P54762 564-984 limits assumed): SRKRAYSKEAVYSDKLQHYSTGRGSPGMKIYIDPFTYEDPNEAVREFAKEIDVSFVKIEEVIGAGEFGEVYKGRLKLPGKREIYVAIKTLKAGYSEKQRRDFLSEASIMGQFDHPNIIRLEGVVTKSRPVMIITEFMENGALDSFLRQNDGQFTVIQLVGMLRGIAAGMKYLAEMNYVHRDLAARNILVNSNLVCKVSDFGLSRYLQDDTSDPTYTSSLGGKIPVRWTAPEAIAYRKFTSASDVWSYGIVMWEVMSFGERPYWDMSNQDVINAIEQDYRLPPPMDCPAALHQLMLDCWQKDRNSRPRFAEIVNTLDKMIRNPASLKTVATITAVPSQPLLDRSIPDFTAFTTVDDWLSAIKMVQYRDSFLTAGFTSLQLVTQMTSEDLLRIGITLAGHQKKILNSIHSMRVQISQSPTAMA

Fgr(h) (human) = Fgr(h) (human) (UniProt P09769)
PAK3(h) (human) = PAK3(h) (human) (UniProt O75914)
Also: test concentration or dose not given here.

TAO3(h) (human), sequence (Q9H2K8 1-315 limits assumed): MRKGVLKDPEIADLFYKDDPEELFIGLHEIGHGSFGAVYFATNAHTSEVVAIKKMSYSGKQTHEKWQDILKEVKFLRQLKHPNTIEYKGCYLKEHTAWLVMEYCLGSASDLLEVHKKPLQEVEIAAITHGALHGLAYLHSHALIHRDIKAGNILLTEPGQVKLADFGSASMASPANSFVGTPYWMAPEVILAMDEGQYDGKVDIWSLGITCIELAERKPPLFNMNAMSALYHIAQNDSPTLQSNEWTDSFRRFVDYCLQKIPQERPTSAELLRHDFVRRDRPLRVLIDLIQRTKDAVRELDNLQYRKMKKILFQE
ACK1(h) (human), sequence (Q07912 110-476 limits assumed): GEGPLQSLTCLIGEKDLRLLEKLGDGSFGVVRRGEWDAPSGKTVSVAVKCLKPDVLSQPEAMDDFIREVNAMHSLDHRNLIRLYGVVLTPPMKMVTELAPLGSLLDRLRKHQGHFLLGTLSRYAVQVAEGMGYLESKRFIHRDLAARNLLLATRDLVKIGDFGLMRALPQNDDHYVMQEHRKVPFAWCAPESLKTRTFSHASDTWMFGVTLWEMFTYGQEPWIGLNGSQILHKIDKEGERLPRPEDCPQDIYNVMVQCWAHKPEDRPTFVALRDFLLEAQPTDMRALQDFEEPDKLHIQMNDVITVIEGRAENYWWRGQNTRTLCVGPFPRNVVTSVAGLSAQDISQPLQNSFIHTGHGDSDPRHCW

MMI-0100 (peptide)
% activity (MKK7β(h) (human)): 137% | % activity (Pim-3(h) (human)): 98% | % activity (TAO3(h) (human)): 45% | % activity (ACK1(h) (human)): 106% | % activity (Ret(V804L)(h) (human)): 113% | % activity (Plk1(h) (human)): 109% | % activity (FGFR2(N549H)(h) (human)): 95% | % activity (DDR2(h) (human)): 105% | % activity (SGK3(h) (human)): 95% | % activity (GRK5(h) (human)): 117% | % activity (MSK2(h) (human)): 105% | % activity (Flt4(h) (human)): 135% | % activity (NEK11(h) (human)): 102% | % activity (Yes(h) (human)): 49% | % activity (PAK6(h) (human)): 121% | % activity (KDR(h) (human)): 100% | % activity (CK2α2(h) (human)): 104% | % activity (FGFR1(V561M)(h) (human)): 108% | % activity (SRPK1(h) (human)): 69% | % activity (TAK1(h) (human)): 116% | % activity (PhKγ2(h) (human)): 62% | % activity (CK1γ2(h) (human)): 119% | % activity (MKK6(h) (human)): 74% | % activity (Tie2(R849W)(h) (human)): 102% | % activity (CK1γ1(h) (human)): 110% | % activity (JNK1α1(h) (human)): 91% | % activity (TrkA(h) (human)): 74% | % activity (MAPK1(h) (human)): 108% | % activity (SGK2(h) (human)): 103% | % activity (Fms(Y969C)(h) (human)): 126% | % activity (IGF-1R(h) (human)): 102% | % activity (CLK2(h) (human)): 88% | % activity (MLCK(h) (human)): 85% | % activity (CDK3/cyclinE(h) (human)): 106% | % activity (HIPK1(h) (human)): 94% | % activity (eEF-2K(h) (human)): 113% | % activity (EphA2(h) (human)): 58% | % activity (cKit(D816H)(h) (human)): 79% | % activity (CK1γ3(h) (human)): 105% | % activity (EphB1(h) (human)): 99% | % activity (Fgr(h) (human)): 54%

MMI-0200 (peptide)
% activity (MKK7β(h) (human)): 117% | % activity (PAK3(h) (human)): 50% | % activity (Pim-3(h) (human)): 94% | % activity (TAO3(h) (human)): 102% | % activity (ACK1(h) (human)): 97% | % activity (Ret(V804L)(h) (human)): 100% | % activity (Plk1(h) (human)): 128% | % activity (FGFR2(N549H)(h) (human)): 104% | % activity (DDR2(h) (human)): 104% | % activity (SGK3(h) (human)): 58% | % activity (GRK5(h) (human)): 135% | % activity (MSK2(h) (human)): 88% | % activity (Flt4(h) (human)): 105% | % activity (NEK11(h) (human)): 95% | % activity (Yes(h) (human)): 93% | % activity (PAK6(h) (human)): 105% | % activity (KDR(h) (human)): 110% | % activity (CK2α2(h) (human)): 88% | % activity (FGFR1(V561M)(h) (human)): 72% | % activity (SRPK1(h) (human)): 93% | % activity (TAK1(h) (human)): 124% | % activity (PhKγ2(h) (human)): 86% | % activity (CK1γ2(h) (human)): 104% | % activity (MKK6(h) (human)): 98% | % activity (Tie2(R849W)(h) (human)): 89% | % activity (CK1γ1(h) (human)): 98% | % activity (JNK1α1(h) (human)): 106% | % activity (MAPK1(h) (human)): 97% | % activity (SGK2(h) (human)): 119% | % activity (Fms(Y969C)(h) (human)): 88% | % activity (IGF-1R(h) (human)): 49% | % activity (CLK2(h) (human)): 97% | % activity (MLCK(h) (human)): 103% | % activity (CDK3/cyclinE(h) (human)): 104% | % activity (HIPK1(h) (human)): 115% | % activity (eEF-2K(h) (human)): 136% | % activity (EphA2(h) (human)): 95% | % activity (cKit(D816H)(h) (human)): 106% | % activity (CK1γ3(h) (human)): 96% | % activity (EphB1(h) (human)): 95% | % activity (Fgr(h) (human)): 71%

MMI-0500 (peptide)
% activity (Pim-3(h) (human)): 37% | % activity (TAO3(h) (human)): 12% | % activity (ACK1(h) (human)): 64% | % activity (Ret(V804L)(h) (human)): 20% | % activity (DDR2(h) (human)): 79% | % activity (SGK3(h) (human)): -3% | % activity (MSK2(h) (human)): 14% | % activity (Flt4(h) (human)): 73% | % activity (NEK11(h) (human)): 2% | % activity (KDR(h) (human)): 15% | % activity (SRPK1(h) (human)): 80% | % activity (PhKγ2(h) (human)): 16% | % activity (MKK6(h) (human)): 18% | % activity (TrkA(h) (human)): 24% | % activity (SGK2(h) (human)): -1% | % activity (MLCK(h) (human)): 0% | % activity (CDK3/cyclinE(h) (human)): 8% | % activity (HIPK1(h) (human)): 47% | % activity (eEF-2K(h) (human)): 43% | % activity (cKit(D816H)(h) (human)): 194% | % activity (EphB1(h) (human)): 37%
